Holding throughout (experiment): SPR ProteOn XPR36, biotinylated antigen on NLC chip, Fab as analyte, 25 C
Test [1] deals with GST huTNCfn5 mu A124 BC hu fn6 B (human fn5 and fn6, murine extra splice …, biotin on the C-terminal avi-tag (BirA, site-specific)). As for the experimental part: (§1) Immobilization of antigens (ligand): Recombinant antigens were diluted with PBST (10 mM phosphate, 150 mM sodium chloride pH 7.4, 0.005% Tween 20) to 10 μg/ml, then injected at 30 μl/minute in vertical orientation. Injection of analytes: For ‘one-shot kinetics’ measurements, injection direction was changed to horizontal orientation, two-fold dilution series of purified Fab were injected simultaneously along separate channels 1-5, with association times of 200 s, and dissociation times of 240 s, respectively. Buffer (PBST) was injected along the sixth channel to provide an “in-line” blank for referencing. Association rate constants (kₒₙ) and dissociation rate constants (koff) were calculated using a simple one-to-one Langmuir binding model in ProteOn Manager v3.1 software by simultaneously fitting the association and dissociation sensorgrams. The equilibrium dissociation constant (KD) was calculated as the ratio koff/kₒₙ.

Test [2] addresses T1, GST huTNC fn5 A1234 fn6 B (human, biotin on the C-terminal avi-tag (BirA, site-specific)).
T1 chain: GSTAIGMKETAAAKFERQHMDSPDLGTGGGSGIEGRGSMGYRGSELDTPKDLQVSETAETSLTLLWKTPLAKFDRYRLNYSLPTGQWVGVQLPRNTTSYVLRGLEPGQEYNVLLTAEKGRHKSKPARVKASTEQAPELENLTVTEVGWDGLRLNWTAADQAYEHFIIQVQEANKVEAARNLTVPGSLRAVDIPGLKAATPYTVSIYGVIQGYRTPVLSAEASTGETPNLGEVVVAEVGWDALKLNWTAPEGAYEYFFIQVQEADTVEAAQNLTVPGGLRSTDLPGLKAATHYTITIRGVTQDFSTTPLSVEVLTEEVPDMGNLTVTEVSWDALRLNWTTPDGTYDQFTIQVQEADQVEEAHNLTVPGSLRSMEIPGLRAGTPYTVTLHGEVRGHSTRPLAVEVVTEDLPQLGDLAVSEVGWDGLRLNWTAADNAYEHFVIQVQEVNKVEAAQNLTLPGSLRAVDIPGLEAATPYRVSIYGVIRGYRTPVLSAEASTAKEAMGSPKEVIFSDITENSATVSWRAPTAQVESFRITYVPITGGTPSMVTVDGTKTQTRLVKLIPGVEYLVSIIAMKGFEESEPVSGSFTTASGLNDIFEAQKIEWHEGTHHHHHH
The method, then:
as §1

The target in test [3] is T2, GST huTNC fn5 A1234 BC fn6 B (human, UniProt P24821 984-1798, biotin on the C-terminal avi-tag (BirA, site-specific)).
T2 construct: also called Human GST-fused TnC fn5 A1234 BC fn6
T2 sequence: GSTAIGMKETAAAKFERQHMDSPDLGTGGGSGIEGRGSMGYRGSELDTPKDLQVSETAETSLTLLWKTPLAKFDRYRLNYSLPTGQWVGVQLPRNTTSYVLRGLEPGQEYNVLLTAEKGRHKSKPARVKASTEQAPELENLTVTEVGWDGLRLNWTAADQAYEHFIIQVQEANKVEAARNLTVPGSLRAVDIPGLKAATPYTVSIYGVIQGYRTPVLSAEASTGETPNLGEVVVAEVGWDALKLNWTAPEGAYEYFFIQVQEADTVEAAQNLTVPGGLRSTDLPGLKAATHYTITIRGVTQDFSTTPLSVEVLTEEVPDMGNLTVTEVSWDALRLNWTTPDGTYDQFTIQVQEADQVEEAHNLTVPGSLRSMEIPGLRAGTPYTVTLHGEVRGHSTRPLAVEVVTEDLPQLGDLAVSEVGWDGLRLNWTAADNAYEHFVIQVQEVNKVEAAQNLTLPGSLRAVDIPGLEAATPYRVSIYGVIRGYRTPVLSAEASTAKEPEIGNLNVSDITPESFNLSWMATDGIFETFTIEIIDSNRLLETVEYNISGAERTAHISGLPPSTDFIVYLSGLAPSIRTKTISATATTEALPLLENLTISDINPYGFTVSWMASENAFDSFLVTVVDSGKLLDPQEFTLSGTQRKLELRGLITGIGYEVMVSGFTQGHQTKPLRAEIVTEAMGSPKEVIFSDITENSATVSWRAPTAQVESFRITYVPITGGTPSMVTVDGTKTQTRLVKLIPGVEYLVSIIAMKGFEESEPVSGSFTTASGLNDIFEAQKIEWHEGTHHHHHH
The method, then:
as §1

For another test, the target named is T3, huTNC A1 B (human).
T3 chain: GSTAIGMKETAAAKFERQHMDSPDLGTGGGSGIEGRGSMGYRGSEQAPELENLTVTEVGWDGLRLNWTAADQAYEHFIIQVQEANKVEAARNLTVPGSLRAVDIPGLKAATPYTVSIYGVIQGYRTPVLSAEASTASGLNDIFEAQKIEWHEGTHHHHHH
The method, then:
as §1

A further test concerns the target T4, huTNC A4 B (human, biotin on the C-terminal avi-tag (BirA, site-specific)).
T4 chain: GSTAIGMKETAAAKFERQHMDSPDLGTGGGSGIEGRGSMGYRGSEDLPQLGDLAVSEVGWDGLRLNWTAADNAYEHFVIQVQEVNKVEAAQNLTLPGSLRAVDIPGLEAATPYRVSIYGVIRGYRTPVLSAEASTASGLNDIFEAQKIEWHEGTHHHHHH
As for the experimental part: as §1

B1: anti-TnC clone 18D4 Fab fragment (Fab, V domains shown)
VH: QVQLVQSGAEVKKPGSSVKVSCKASGGTFSSYAISWVRQAPGQGLEWMGGIIPIFGTANYAQKFQGRVTITADKSTSTAYMELSSLRSEDTAVYYCAKGNFYGGLDYWGQGTTVTVSS
VL: DIQMTQSPSTLSASVGDRVTITCRASQSISSWLAWYQQKPGKAPKLLIYDASSLESGVPSRFSGSGSGTEFTLTISSLQPDDFATYYCQQNKKFPSGTFGQGTKVEIK
As usually defined, the Kd is the concentration at which binding is half-saturated. Higher therefore signals lower affinity. On to B1, for which the Kd is 11.2 nM in test [1]; 5 nM in test [2]; 4 nM in test [3]; 5.6 nM with huTNC A1 B; 2 nM with huTNC A4 B.

The record behind these values is US20190248877A1 (Hoffmann-La Roche, published 2019).
